{"source": "patent US9505841B2", "about": "“Use of an anti-Ang2 antibody” (Samsung Electronics Co., Ltd., priority 2013, dated 2016)", "molecules": {"B1": {"name": "10D6: mouse anti-Ang2 monoclonal antibody from hybridoma KCLRF-BP-00295; heavy chain variable region SEQ ID NO: 7, light chain variable region SEQ ID NO: 9 (antibody, V domains shown)", "VH": "DVQLQESGPGLVKPSQSLSLTCTVTGYSITSDYAWNWIRQFPGNKLEWMGYINYSGNTDYNPSLKSRSSITRDTSKNQFFLQLNSVTTGDTATYYCARGNFEGAMDYWGQGTSVTVSS", "VL": "SIVMTQTPKFLLVSAGDRVTITCKASQSVSNDVAWYQQKPGQSPKLLIYYASNRYPGVPDRFTGSGYGTDFTFTISTVQAEDLAVYFCQQDYSSPWTFGGGTKLEIK", "modifications": "Synthetic (Heavy chain variable region of an anti-Ang2 antibody); Synthetic (Light chain variable region of anti-Ang2 antibody)"}}, "type_in_all_cases": "cell-based, human", "key": {"[1]": {"system": "HL-60 cells adhered to HUVEC cells", "experiment": "Binding between inflammatory cells HL-60 and HUVEC induced by TNF-a", "details": "1 ng/ml TNF-a; 0.2 ug/ml Ang1 or 0.1 ug/ml Ang2 + 0.5 ug/ml 10D6", "experimental": "Meanwhile, if the expression of inflammatory adhesion substances (ICAM-1, E-selectin, etc.) of vascular endothelial cells is increased, binding between the inflammatory cells and the vascular endothelial cells are accelerated and inflammatory response is thus induced. To confirm this, an experiment for measuring binding between inflammatory cells HL-60 (ATCC) and HUVEC was conducted.\nHUVEC cells (4×10^5) were cultured in a 24-mutiwell plate and treated with 0.1 ug/ml of Ang2 alone or 0.1 ug/ml of Ang2 together with 0.5 ug/ml of antibody 10D6, and a group in which 0.2 ug/ml of Ang1, and 0.1 ug/ml of Ang2 (R&D systems) and 0.5 ug/ml of Regeneron Co. antibody (RG antibody) were co-treated was included as a control group. As above, the HUVEC cells were treated with Angiopoietin and antibody and after 30-min. pre-incubation, they were treated with 1 ng/ml of TNF-a (eBioscience) to induce inflammatory response and incubated for 2 hours and 30 min.\nAfter the HUVEC cells were washed with complete media (Lonza), HL-60 cells dyed with Calcein-AM (BD bioscience) solution were added at the amount of 2.5×10^5 cells to each well and incubated for 1 hour. […] The obtained lysate was transported to a 96-well plate, and fluorescence strengths derived from the HL-60 cells were measured at 485/535 nm (Ex/Em) setting using an Envision 2104 multilabel Reader (Perkin Elmer)."}, "Tie2 receptor": {"system": "Tie2 receptor", "experiment": "Tie2, Akt and 42/44 phosphorylation in HUVEC: antibody 10D6 versus 10D6 Fab", "details": "60 nM 10D6 antibody or 10D6 Fab with 40 nM Ang2", "experimental": "To see whether the activation of a Tie2 receptor is resulted from the dimerization of antibody 10D6, Fab fragments of antibody 10D6 were purified and then used for this experiment. The Fab fragments were obtained from antibody 10D6 using an Fab Preparation Kit (Pierce). As a digestion buffer, PBS containing 20 mM EDTA and 20 mM L-Cysteine was used, and the antibody was separated into Fab and Fc by the treatment with an immobilized papain at a room temperature for 2 hours. The Fc fragments were removed from the reaction solution using MabSelectSuRe column (GE Healthcare) to isolate and purify pure Fab fragments only.\nHUVEC (ATCC) cells (1×10^6) were cultured in a 100 mm culture dish using EGM-2 (Lonza) media at 37° C. and when they reached 80˜90% confluency, the media were replaced with serum-free media (Lonza) and cultured at 37° C. for 6 to 16 hours. The dish was washed once with PBS and after the replacement with […] sodium orthovanadate (Sigma)-mixed serum free media (Lonza), they were further cultured for 10 min. After washed once with PBS, the cultured cells were treated with a mixture prepared by mixing 60 nM of 10D6 Ang2 antibody or 10D6 Fab with 40 nM of Ang2 protein (R&D systems) and letting them stand for 20 min. and further cultured for 10 min. […]"}, "HUVEC monolayer": {"system": "HUVEC monolayer", "experiment": "In vitro vascular permeability assay (FITC-dextran)", "details": "200 ng/ml Ang1 alone or 200 ng/ml Ang2 + 1 ug/ml 10D6", "experimental": "To see the cell permeability suppression effects of antibody 10D6, in vitro vascular permeability assay kit (Millipore) was employed. HUVEC (ATCC) cells (5×10^4) were added to a collagen-coated transwell and cultured for 2 days to prepare a confluent monolayer. It was treated with 200 ng/ml of Ang2 or 200 ng/ml of Ang1 (R&D systems) alone, or 200 ng/ml of Ang2 and 1 ug/ml of antibody 10D6, pre-incubated for 30 min. and then, treated with 100 ng/ml of LPS (Lipopolysaccharide; Sigma) or 100 ng/ml TNF-a (R&D systems) to induce the permeability of HUVEC monolayer. LPS or TNF-a weakens binding between HUVEC cells to form a gap therebetween, thereby increasing the migration of materials in the HUVEC monolayer. After 6-hour incubation for the LPS treatment group and 22-hour incubation for the TNF-a group, the upper chamber was treated with FITC-dextran (Millipore) and incubated for 18 min. The fluorescence of FITC-dextran migrated to the lower chamber was measured at 485/535 nm (Ex/Em) setting using an Envision 2104 multilabel Reader (Perkinelmer)."}}}
{"molecule": "B1", "values": [{"measurement": "binding between HUVEC cells and HL-60 cells induced by TNF-a", "setting": "[1]", "value": "remarkably suppressed"}, {"measurement": "phosphorylation of Tie2, Akt and 42/44", "setting": "Tie2 receptor", "value": "occurred"}, {"measurement": "vascular permeability increased by LPS", "setting": "HUVEC monolayer; 100 ng/ml LPS, 6 hour", "value": "decreased to the control level"}, {"measurement": "vascular permeability increased by TNF-a", "setting": "HUVEC monolayer; 100 ng/ml TNF-a, 22 hour", "value": "decreased to the control level"}]}
